From patent US20160068605A1 (Janssen / Centocor, published 2016)
Where a chain is given by its changes, count along the chain named. Values belong to the binder of their own block, whether it stands above or below them.

How the values were obtained:
[1] = target: T1, Recombinant human CD123 SP1 ECD-His tag protein (human, UniProt P26951 20-305); assay: SPR ProteOn, captured mAb
T1 construct: bought from R&D Systems (#301-R3/CF); biotinylated for some assays; also called rhCD123 SP1; huCD123 ECD SP1
T1 sequence: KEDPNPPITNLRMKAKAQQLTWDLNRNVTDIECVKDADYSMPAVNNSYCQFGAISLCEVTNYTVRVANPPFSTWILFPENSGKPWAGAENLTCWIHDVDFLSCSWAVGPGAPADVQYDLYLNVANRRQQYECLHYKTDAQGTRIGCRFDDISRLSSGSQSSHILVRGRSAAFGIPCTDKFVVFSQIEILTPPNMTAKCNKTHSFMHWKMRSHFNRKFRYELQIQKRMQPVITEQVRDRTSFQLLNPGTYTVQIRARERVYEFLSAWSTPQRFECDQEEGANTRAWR

[2] = target: T2, Recombinant human CD123 SP2 ECD protein (human, UniProt P26951 101-303); assay: SPR ProteOn, captured mAb
T2 construct: also called rhCD123 SP2; CD123 ECD SP2
T2 sequence: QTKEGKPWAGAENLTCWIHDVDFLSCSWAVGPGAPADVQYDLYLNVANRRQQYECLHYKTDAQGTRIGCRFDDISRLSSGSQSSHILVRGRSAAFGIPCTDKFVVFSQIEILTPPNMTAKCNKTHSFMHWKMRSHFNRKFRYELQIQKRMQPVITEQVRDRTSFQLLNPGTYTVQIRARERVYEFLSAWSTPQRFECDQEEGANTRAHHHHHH

[3] = target: T3, human CD123 SP2 ECD displayed on pDisplay-transfected cells (human, UniProt P26951 101-305); assay: MSD-CAT on pDisplay cells
T3 construct: ECD anchored on the surface of stably transfected HEK293 cells; also called hCD123 SP2 cells; pDisplay CD123SP2
T3 sequence: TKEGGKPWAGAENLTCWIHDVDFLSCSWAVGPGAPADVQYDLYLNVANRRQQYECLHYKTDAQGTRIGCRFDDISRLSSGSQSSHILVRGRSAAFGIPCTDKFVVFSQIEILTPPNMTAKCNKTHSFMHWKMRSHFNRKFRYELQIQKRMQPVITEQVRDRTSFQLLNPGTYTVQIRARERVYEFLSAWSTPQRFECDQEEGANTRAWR
Method: (§1) The MSD-CAT was developed in-house as a label-free method to determine affinity using intact cells in a high throughput format. […] Cell lines used were human pDisplay CD123SP1 and pDisplay CD123SP2. […] These samples were prepared in DMEM Glutamax medium containing 0.05% Azide, 1% BSA, 3 mM EDTA. […] After equilibration the plate was centrifuged for 5 minutes ˜1000 rpm and free anti-CD3 detected on the supernatant. […] The assay buffer was removed without washing and 50 uL/well of 0.7 ug/mL of biotinylated antigen in assay buffer were added to MSD plates and incubated overnight (˜16 hours at 4° C.).

[4] = target: T1, Recombinant human CD123 SP1 ECD-His tag …; assay: SPR Biacore 3000, captured mAb
Method: (§2) Kinetic studies were performed at 25° C. using a Biacore 3000 (BIAcore, Inc., now part of GE Healthcare). […] Sheep anti-Human Fd specific antibody (The binding site Prod # PC075) was covalently attached to two flow cells (normally 3 and 4) of the carboxymethyl dextran coated gold surfaces (CM-5 Chip, Biacore). The carboxymethyl groups of dextran were activated with N-Ethyl-N′-(3-Dimethylaminopropyl)carbodiimide (EDC) and N-hydroxysuccinimide (NHS). The antibodies were coupled at pH 4.5 in 10 mM sodium acetate. Any remaining reactive sites on the surface were blocked by reaction with ethanolamine. […] Association data was collected for 2 min followed by 10 min of dissociation. The surface was regenerated with 30 μL of 100 mM H3PO4 100 μL/min. All samples were prepared in D-PBS containing 3 mM EDTA and 0.005% surfactant P20. Data reported is the difference in SPR signal between the flow cell containing the captured antibody or Fab and a reference cell without captured antibody or Fab. Additional instrumental contributions to the signal were removed by subtraction of the data from the blank injection from the reference-subtracted signal. Data were performed in triplicate and analyzed by fitting association and dissociation phases at all concentrations (global fit) with a 1:1 binding model using the BIAevaluation software (BIAcore, Inc.). […] Data presented is an average.

[5] = target: T2, Recombinant human CD123 SP2 ECD protein; assay: SPR Biacore 3000, captured mAb
Method: as §2

[6] = target: T4, human CD123 SP1 ECD displayed on pDisplay-transfected cells (human, UniProt P26951 20-305); assay: MSD-CAT on pDisplay cells
T4 construct: ECD anchored on the surface of stably transfected HEK293 cells by the PDGFR transmembrane domain; also called hCD123 SP1 cells; hCD123 cells
T4 sequence: T1 sequence
Method: as §1

[7] = target: T1, Recombinant human CD123 SP1 ECD-His tag …; assay: SPR Biacore T200, captured antibody
Method: (§3) Kinetic studies were performed at 25° C. using a Biacore T200 (Biacore, Inc., now part of GE Healthcare). […] The carboxymethyl groups of dextran were activated with N-Ethyl-N′-(3-Dimethylaminopropyl)carbodiimide (EDC) and N-hydroxysuccinimide (NHS). The anti-Fc antibody was coupled at pH 4.5 in 10 mM sodium acetate. Any remaining reactive sites on the surface were blocked by reaction with ethanolamine. […] 40-70 RU of antibody were captured. […] Association data was collected for 2 min followed by 10 min of dissociation. The surface was regenerated with 30 μL of 100 mM H3PO4 100 μL/min, followed by 50 mM NaOH. The samples for kinetic analysis were prepared in PBS-based buffer (D-PBS containing 3 mM EDTA and 0.005% surfactant P20). Data reported is the difference in SPR signal between the flow cell containing the captured antibody and a reference cell without captured antibody. Additional instrumental contributions to the signal were removed by subtraction of the data from the blank injection from the reference-subtracted signal. Data were analyzed by fitting association and dissociation phases at all concentrations (global fit) with a 1:1 binding model using the BIAevaluation software (BIAcore, Inc.).

[8] = target: T2, Recombinant human CD123 SP2 ECD protein; assay: SPR Biacore T200, captured antibody
Method: as §3

[9] = target: T5, cell-surface CD3 epsilon on primary cynomolgus T cells (cynomolgus monkey, UniProt Q95LI5 22-198); assay: flow cytometry competition with labeled CD3B146 on T cells
T5 construct: whole, on cells; also called cynomolgus CD3e; Cyno T-cells
Text: (§4) The format involved competition binding using a fixed concentration of labeled anti-CD3 mAb of known affinity and increasing concentrations of unlabeled test Abs (Ashkenazi A et al. PNAS: 88:10535, 1991.).

[10] = target: T6, cell-surface CD3 epsilon on primary human T cells (human, UniProt P07766 23-207); assay: as above
T6 construct: whole, on cells; part of the CD3/TCR complex on the cells
Text: as §4

[11] = target: T6, cell-surface CD3 epsilon on primary …; assay: competition flow cytometry on primary human T cells (Human Donor 10357); competitor displaced: Alexa Fluor 488-labelled CD3B146
Text: as §4

T6 sequence (P07766 23-207): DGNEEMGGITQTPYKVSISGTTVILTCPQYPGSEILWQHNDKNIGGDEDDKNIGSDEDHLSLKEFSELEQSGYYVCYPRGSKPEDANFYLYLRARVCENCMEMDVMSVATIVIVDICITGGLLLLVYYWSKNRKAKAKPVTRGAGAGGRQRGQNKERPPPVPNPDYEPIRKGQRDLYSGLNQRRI
T5 sequence (Q95LI5 22-198): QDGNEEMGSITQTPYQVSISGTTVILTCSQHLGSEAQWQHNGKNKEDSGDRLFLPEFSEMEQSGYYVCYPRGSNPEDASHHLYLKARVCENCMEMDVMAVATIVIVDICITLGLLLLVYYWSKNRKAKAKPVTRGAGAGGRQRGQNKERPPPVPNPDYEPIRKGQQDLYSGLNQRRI

Kd [1]: 4.5 nM | koff [1]: 0.00477 s⁻¹ | kon [1]: 1.06e+06 M⁻¹ s⁻¹ | Kd [2]: 1.85 nM | koff [2]: 0.00335 s⁻¹ | kon [2]: 1.81e+06 M⁻¹ s⁻¹ | Kd [3]: 0.036 nM | Kd [4]: 7.7 nM | koff [4]: 0.00372 s⁻¹ | kon [4]: 481000 M⁻¹ s⁻¹ | Kd [5]: 1.4 nM
B1: I3RB2 (antibody, IgG1, V domains shown)
VH: EVQLLESGGGLVQPGGSLRLSCAASGFTFSGYWMHWVRQAPGKGLEWVSAIRSDGSSKYYADSVKGRFTISRDNSKNTLYLQMNSLRAEDTAVYYCAKDGVIEDTFDYWGQGTLVTVSS
VL: EIVLTQSPATLSLSPGERATLSCRASQSVSSYLAWYQQKPGQAPRLLIYDASNRATGIPARFSGSGSGTDFTLTISSLEPEDFAVYYCQQRSNWPLTFGQGTKVEIK
notes: IgG1; also called I3RB02; 13RB2

Kd [6]: 2.43 nM | Kd [3]: 1.72 nM | Kd [7]: 13.7 nM | koff [7]: 0.0051 s⁻¹ | kon [7]: 371000 M⁻¹ s⁻¹ | Kd [8]: 1.69 nM | koff [8]: 0.0049 s⁻¹ | kon [8]: 2.88e+06 M⁻¹ s⁻¹ | Kd [9]: 25.3 nM | Kd [10]: 27.9 nM | IC50 (read off the curve) [11]: ~70 nM
B2: bispecific antibody Ab 5466 (bispecific antibody, human IgG4 S228P, kappa, lambda, F234A L235A)
heavy 1: EVQLVESGGGLVQPGGSLKLSCAASGFTFNTYAMNWVRQASGKGLEWVGRIRSKYNAYATYYAASVKGRFTISRDDSKNTAYLQMNSLKTEDTAVYYCTRHGNFGNSYVSWFAYWGQGTLVTVSSASTKGPSVFPLAPCSRSTSESTAALGCLVKDYFPEPVTVSWNSGALTSGVHTFPAVLQSSGLYSLSSVVTVPSSSLGTKTYTCNVDHKPSNTKVDKRVESKYGPPCPPCPAPEAAGGPSVFLFPPKPKDTLMISRTPEVTCVVVDVSQEDPEVQFNWYVDGVEVHNAKTKPREEQFNSTYRVVSVLTVLHQDWLNGKEYKCKVSNKGLPSSIEKTISKAKGQPREPQVYTLPPSQEEMTKNQVSLTCLVKGFYPSDIAVEWESNGQPENNYKTTPPVLDSDGSFLLYSKLTVDKSRWQEGNVFSCSVMHEALHNHYTQKSLSLSLGK
light 1: QAVVTQEPSLTVSPGGTVTLTCRSSTGAVTTSNYANWVQQKPGQAPRGLIGGTNKRAPGTPARFSGSLLGGKAALTLSGAQPEDEAEYYCALWYSNLWVFGGGTKLTVLGQPKAAPSVTLFPPSSEELQANKATLVCLISDFYPGAVTVAWKADSSPVKAGVETTTPSKQSNNKYAASSYLSLTPEQWKSHRSYSCQVTHEGSTVEKTVAPTECS
heavy 2: not shown
light 2: not shown

Kd [6]: 1.76 nM | Kd [3]: 2.21 nM | Kd [7]: 14.3 nM | koff [7]: 0.0048 s⁻¹ | kon [7]: 337000 M⁻¹ s⁻¹ | Kd [8]: 1.63 nM | koff [8]: 0.0052 s⁻¹ | kon [8]: 3.19e+06 M⁻¹ s⁻¹ | Kd [9]: 9.5 nM | Kd [10]: 9.6 nM | IC50 (read off the curve) [11]: ~20 nM
B3: bispecific antibody Ab 8747 (bispecific antibody, human IgG4 S228P, kappa, lambda, F234A L235A)
heavy 1: B2 heavy 1 with K19R, S41P, G49A, A57N, T80S, A81L, T99A
light 1: B2 light 1 with A2T, A80V
heavy 2: not shown
light 2: not shown
